{"source": "a protein production outcome set (Wang et al. 2014)", "experiment": "label from the status in PepcDB records"}
{"sequence": "MMKIYLIEHVIGAVAYDENGNIVDYITNPRDLGKITEELLNNEKGIPFSATVELLKKVNPQEVVVENEAEVPKLQALGYRVSYEPYSKVSRIFRESLPKVAIDIKFASNEEDYYNFLHELSLEYTRRKLRSAAQKRDLLAIQAVRAMDDIDKTINLFSERLREWYSIHFPELDKLIEDHEEYATIVSRFGDRGFLTIDSLKELGFNEQRINRILDAAKKSIGADISEDDLSAMRMIANTILDLYNIRRNLNNYLEGVMKEVAPNVTALVGPALGARLLSIAGSLDELAKMPASTIQVLGAEKALFRALRSGGRPPKHGIIFQYPAIHTSPRWQRGKIARALAAKLAIAARVDAFSGRFIGDQLNEQLKKRIDEIKEKFAQPPPKKPQQQKPQQPQKQQAKGKKGGKRRGKRK", "values": [{"measurement": "protein production", "result": "failed"}]}
{"sequence": "MMKNFVCTTCGVQYAASVEEPVSCHICDEERQYVNPKGQSWTTLENLQTDDTYKNEIIKEENGLYSITTKPGFAIGQTAFVVKTESYRLLWDCITYLDETTITKIKELGGLDAIALSHPHYYSTQVEWAETFDVPIYIHEDDKEWVMRPSSRIIYWSGESLQLADGITVHRLGGHFSGGSVLHWEEGNDGKGILLTGDIIQVVADERWVSFMYSYPNLIPLPARKVEEMVNRVKPLQFNRLYNAFHRVVKENANEAVERSAERYIKAIEGKLFHT", "values": [{"measurement": "protein production", "result": "failed"}]}
{"sequence": "MMKNMILPIAFTALIASMTACSDETDPILTQKNWDGTATYFQSSDEHGFSMYYKPQVGFVGDPMPFYDPVAKDFKVMYLQDYRPNPEATYHPIFGVATKDGATYESLGELISCGGRDEQDAAIGTGGTIYNPADKLYYTFYTGNKFKPSSDQNAQVVMVATSPDFKTWTKNRTFYLKGDTYGYDKNDFRDPFLFQTEDGVYHMLIATRKNGKGHIAEFTSADLKEWESAGTFMTMMWDRFYECPDVFKMGDWWYLIYSEQASFMRKVQYFKGRTLEDLKATTANDAGIWPDNREGMLDSRAFYAGKTASDGTNRYIWGWCPTRAGNDNGNVGDVEPEWAGNLVAQRLIQHEDGTLTLGVPDAIDRKYTSAQEVKVMAKDGNMIESGKTYTLGEGASVIFNRLKVHNKISFTVKTASNTDRFGISFVRGTDSASWYSIHVNADEGKANFEKDGDDAKYLFDNKFNIPADNEYRVTIYSDQSVCVTYINDQLSFTNRIYQMQKNPWSLCCYKGEITVSDVQVSTY", "values": [{"measurement": "protein production", "result": "failed"}]}
{"sequence": "MMKRVNSHGSDYWRKNGCDFTDHRAFAPVKILDVAQIKENPMSEQIELIRLAIFFSVLVICALWESNRPRKTLSQSKRVRWLNNLGLVGFNSLLITALMPILAFSAAQWAQSQQFGLLYWLEIPPFIALFVAVVLLDAVIYWQHLLFHRIPLLWRLHRMHHADQDIDVTTGSRFHPLEIMISAWIKIGAVTLLGASPLAVVVFEILLNASAMFNHSNAKLPYKIDQWLRLLVVTPDMHRVHHSVLVHETHSNFGFFLSIWDKMFHTYIAQPEMGHERMKIGLPLFRQAREQWLDKMLTQPFRER", "values": [{"measurement": "protein production", "result": "failed"}]}
{"sequence": "MMLITERRSPFYPNIQNVPPSVIRKLVKNKAITLIDVRQPWEYEDHHIPGSILLPLDYFKELFPLVLSKNNLVKNGVAIICEHANRSTWLVYTEPSLFKEVKVYNMLGGIELWMIMGYEIEKGMDDNGTLWYKLLTKNLGLEHHHHHH", "values": [{"measurement": "protein production", "result": "failed"}]}
{"sequence": "MMLLLPEFGYVSLLLAVCVGVATALLTFSGYTLRWSGTYRLARCWTLVLFGLVLFAFVALTLSVVQDDFSVNYVAQHSHRDLPLGLKIAAVWGGHEGSLLLWLLCLSGWSATFACRYRKAMSDLFPLTLAMLAVIATALLVFIVFFSDPFVRLFPPAVAGRDLNPMLQHIGLILHPPLLYLGYGGLTVSAALALAALIHGEFTAPAAWICWRWTLPAWSLLTLGIILGSWWAYNELGWGGWWFWDPVENASLLPWLTASALLHSLSVTRMRGIFRHWSLILALLTFILCLLGTLIVRSGILVSVHAFALEHDRAVPLFILFACLSMAALAVYGWRAQLVHSAARFSGWSREMAILLVLLLFSAVALVVLLGTLYPMIYGLAGWGKISVGAPYFNRVLLPFAGLMLLLIGVAAGGYWKRSTRWPVWHLGVTLAVGVVTALVLWPYGYDVALASGLIGWVMAAQWLQPLLALRQQLPALLAHTGVVLFALGIAFSAGSKQEISANVGQGEQVTLGDYQFHFLQLDLVAAQNYTAEQAVIAIYRGDSPIARVIPERRYYNARKQQMIEPGIAWGPIREWYAVMGEKTGENRYAMRFYVQTGVRWVWGGGMLMVAGALLGWFRGRRVYD", "values": [{"measurement": "protein production", "result": "failed"}]}
{"sequence": "MMLSATQPLSEKLPAHGCRHVAIIMDGNGRWAKKQGKIRAFGHKAGAKSVRRAVSFAANNGIEALTLYAFSSENWNRPAQEVSALMELFVWALDSEVKSLHRHNVRLRIIGDTSRFNSRLQERIRKSEALTAGNTGLTLNIAANYGGRWDIVQGVRQLAEKVQQGNLQPDQIDEEMLNQHVCMHELAPVDLVIRTGGEHRISNFLLWQIAYAELYFTDVLWPDFDEQDFEGALNAFANRERRFGGTEPGDETA", "values": [{"measurement": "protein production", "result": "not failed"}]}
